Laboratory results taken from publication PMC7889028.

Target: head domain of PPRV ICV'89 strain H protein (residues 156-610) (peste des petits ruminants virus, strain Ivory Coast'89 (ICV'89))
Assay: SEC

**Q.** Which stoichiometry N does the source give for “head domain of PPRV ICV'89 strain H protein (residues 156-610) (domain or fragment)” here?
**A.** 2
